Source: paper PMC9671094 (Immunity, 2022)

Target: T1, BG505 SOSIP.D664 (HIV-1 isolate BG505 (clade A), stabilised)
T1 construct: also called BG505.SOSIP.664; source: HEK 293F, co-transfected with furin, purified (HisTrap, SEC); copies: 3 + 3
Assay: SPR; IgG captured as ligand by anti-human IgG (Human Antibody Capture Kit) on a GLC chip, ProteOn XPR36; trimer as analyte; 1x HBS-EP+ pH 7.4 with 1 mg/ml BSA; 1:1 binding model; highest SOSIP concentration 5 uM or 10 uM
Conditions: both partners purified

B1: PCT64.13C (antibody, V domains shown)
VH: EVQLVESGGGLVKPGGSLRLSCAASGFTFTNAWLDWVRQAPGKGLEWVGRIKSKTDGGTTDHAAPVKGRFTISRDDSKNTVYLQMNSLKIEDTAVYYCTTGVETYDFWSGYDDHYYDYYFKDVWGKGTTVTVSS
VL: EIVLTQSPGTLSLSPGERATLSCRASQSVSNNYLAWYQQKPGQAPRLLIYGASSRATGIPDRFSGSGSGTDFTLTISRLEPEDFAVYYCQQSARSFTFGPGTKVDIK
Question: With B1 as the binder, how does the Kd read?
Answer: > 5 µM

B2: PG9.iGL (antibody, V domains shown)
VH: QVQLVESGGGVVQPGRSLRLSCAASGFTFSSYGMHWVRQAPGKGLEWVAVISYDGSNKYYADSVKGRFTISRDNSKNTLYLQMNSLRAEDTAVYYCAREAGGPDYRNGYNYYDFWSGYYYYYYMDVWGKGTTVTVSS
VL: QSALTQPASVSGSPGQSITISCTGTSSDVGGYNYVSWYQQHPGKAPKLMIYEVSNRPSGVSNRFSGSKSGNTASLTISGLQAEDEADYYCSSYTSSSTVVFGGGTKLTVL
Question: With B2 as the binder, how does the Kd read?
Answer: > 5 µM
